# Data reported in US20200317768A1 (published 2020).
# Positions count from the first letter of the chain named.
# B1: M103205H795-MY012/M103202L889-SK1 (antibody, human IgG1, kappa)
# heavy: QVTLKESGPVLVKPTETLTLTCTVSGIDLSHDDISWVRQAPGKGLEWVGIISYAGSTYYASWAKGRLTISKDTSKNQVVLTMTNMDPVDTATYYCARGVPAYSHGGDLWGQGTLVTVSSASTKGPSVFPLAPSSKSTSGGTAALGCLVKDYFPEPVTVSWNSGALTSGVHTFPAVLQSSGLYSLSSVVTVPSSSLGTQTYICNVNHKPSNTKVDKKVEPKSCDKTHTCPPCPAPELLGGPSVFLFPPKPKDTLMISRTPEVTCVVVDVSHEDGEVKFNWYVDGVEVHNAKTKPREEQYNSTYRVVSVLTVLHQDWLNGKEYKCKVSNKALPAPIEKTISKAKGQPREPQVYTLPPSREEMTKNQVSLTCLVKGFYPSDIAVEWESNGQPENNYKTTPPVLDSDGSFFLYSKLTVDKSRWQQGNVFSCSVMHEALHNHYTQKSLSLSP
# light: DIVMTQSPATLSLSPGERATLSCTSSQSVYHANWLSWFQQKPGQPPKLLIYWASTLAYGVPSRFSGSGSGTDFTLTISSLQPEDAATYYCAGGYGGGRYAFGQGTKVEIKRTVAAPSVFIFPPSDEQLKSGTASVVCLLNNFYPREAKVQWKVDNALQSGNSQESVTEQDSKDSTYSLSSTLTLSKADYEKHKVYACEVTHQGLSSPVTKSFNRGEC
# notes: Put into M103205H795-SG1
# B2: M103205H795-MY067/M103202L889-SK1 (antibody, human IgG1, kappa)
# heavy: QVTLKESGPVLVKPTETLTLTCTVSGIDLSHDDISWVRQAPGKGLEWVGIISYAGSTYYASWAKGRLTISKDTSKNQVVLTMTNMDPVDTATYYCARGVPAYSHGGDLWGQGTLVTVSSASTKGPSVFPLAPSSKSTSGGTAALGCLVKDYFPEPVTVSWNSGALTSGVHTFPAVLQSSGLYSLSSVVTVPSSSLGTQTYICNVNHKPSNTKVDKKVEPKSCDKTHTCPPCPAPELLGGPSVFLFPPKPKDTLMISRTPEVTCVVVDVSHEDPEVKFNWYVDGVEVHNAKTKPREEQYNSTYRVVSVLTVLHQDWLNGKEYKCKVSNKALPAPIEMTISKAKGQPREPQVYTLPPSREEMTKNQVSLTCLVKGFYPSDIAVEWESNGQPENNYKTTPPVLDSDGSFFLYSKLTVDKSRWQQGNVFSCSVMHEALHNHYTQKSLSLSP
# light: B1 light
# notes: Substitution put into M103205H795-SG1
# B3: M103205H795-MY066/M103202L889-SK1 (antibody, human IgG1, kappa)
# heavy: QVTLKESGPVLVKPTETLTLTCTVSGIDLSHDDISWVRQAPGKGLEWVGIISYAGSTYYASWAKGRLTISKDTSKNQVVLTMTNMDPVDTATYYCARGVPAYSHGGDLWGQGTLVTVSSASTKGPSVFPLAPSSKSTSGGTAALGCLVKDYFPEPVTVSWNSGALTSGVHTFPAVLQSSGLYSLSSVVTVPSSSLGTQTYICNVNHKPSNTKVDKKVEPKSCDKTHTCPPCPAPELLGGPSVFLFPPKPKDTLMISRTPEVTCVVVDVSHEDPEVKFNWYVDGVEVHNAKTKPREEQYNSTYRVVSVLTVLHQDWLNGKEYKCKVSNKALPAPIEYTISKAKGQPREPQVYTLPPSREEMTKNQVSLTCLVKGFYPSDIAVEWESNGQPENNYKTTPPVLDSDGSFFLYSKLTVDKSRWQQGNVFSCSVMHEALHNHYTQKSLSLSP
# light: B1 light
# notes: as for B2
# B4: M103205H795-MY017/M103202L889-SK1 (antibody, human IgG1, kappa)
# heavy: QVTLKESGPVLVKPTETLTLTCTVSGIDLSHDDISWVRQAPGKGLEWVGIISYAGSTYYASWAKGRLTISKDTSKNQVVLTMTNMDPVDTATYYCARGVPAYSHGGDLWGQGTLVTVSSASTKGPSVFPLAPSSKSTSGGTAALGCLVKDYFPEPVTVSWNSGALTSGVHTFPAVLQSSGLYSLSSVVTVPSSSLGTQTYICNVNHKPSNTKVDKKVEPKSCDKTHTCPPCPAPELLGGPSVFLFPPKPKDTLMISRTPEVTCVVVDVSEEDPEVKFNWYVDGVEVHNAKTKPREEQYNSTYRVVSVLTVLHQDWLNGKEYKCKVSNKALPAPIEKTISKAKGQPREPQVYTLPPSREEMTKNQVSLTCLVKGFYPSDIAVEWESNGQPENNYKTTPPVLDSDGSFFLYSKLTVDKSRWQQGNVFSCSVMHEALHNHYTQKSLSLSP
# light: B1 light
# notes: as for B2
# B5: M103205H795-MY061/M103202L889-SK1 (antibody, human IgG1, kappa)
# heavy: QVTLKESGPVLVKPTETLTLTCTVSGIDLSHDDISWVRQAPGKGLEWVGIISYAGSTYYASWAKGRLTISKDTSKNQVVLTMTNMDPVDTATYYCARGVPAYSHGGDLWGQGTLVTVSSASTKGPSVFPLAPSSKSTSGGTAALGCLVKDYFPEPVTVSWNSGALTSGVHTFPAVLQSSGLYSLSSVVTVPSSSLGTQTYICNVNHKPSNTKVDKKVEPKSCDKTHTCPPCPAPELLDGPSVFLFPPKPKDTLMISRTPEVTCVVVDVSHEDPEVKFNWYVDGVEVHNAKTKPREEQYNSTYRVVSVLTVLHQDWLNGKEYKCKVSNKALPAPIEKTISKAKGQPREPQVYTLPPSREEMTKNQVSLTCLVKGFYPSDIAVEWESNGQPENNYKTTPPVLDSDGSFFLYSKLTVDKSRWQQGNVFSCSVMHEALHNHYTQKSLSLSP
# light: B1 light
# notes: as for B2
# Target: T1, human FcγRIIb extracellular domain, His-tagged (human, UniProt P31994 43-217)
# T1 construct: also called FcgRIIb (human)
# T1 sequence: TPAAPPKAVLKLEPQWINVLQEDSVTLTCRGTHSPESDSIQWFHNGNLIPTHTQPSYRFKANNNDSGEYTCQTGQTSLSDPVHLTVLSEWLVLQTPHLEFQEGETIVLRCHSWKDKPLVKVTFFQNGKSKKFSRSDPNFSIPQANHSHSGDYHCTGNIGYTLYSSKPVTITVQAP
# Assay: SPR, antibody captured, FcgR analyte
# Protocol: (§1) The kinetic analysis of interactions between these antibodies and FcγR was carried out using BIACORE® T200 or BIACORE® 4000 (GE Healthcare). HBS-EP+ (GE Healthcare) was used as the running buffer, and the measurement temperature was set to 25° C. A chip produced by immobilizing Protein A. Protein A/G or mouse anti-human IgG kappa light chain (BD Biosciences) onto a Series S Sensor Chip CM4 or CM5 (GE Healthcare) by the amine-coupling method was used. […] After the measurement, the antibody captured on the chip was washed off by allowing reaction with 10 mM glycine-HCl, pH1.5 and 25 mM NaOH so that the chip was regenerated and used repeatedly. The sensorgrams obtained as measurement results were analyzed by the 1:1 Langmuir binding model using the BIACORE® Evaluation Software to calculate the binding rate constant ka (L/mol/s) and dissociation rate constant kd (l/s), and the dissociation constant KD (mol/L) was calculated from these values. […] Regarding such interactions, KD values were calculated using the following 1:1 binding model described in BIACORE® T100 Software Handbook BR1006-48 Edition AE.
# (§2) The behavior of interacting molecules according to the 1:1 binding model on BIACORE® can be described by Equation 1: Req=C·R max/(KD+C)+RI, wherein, Req is a plot of steady-state binding levels to analyte concentration. C is concentration, RI is bulk refractive index contribution in the sample, and Rmax is analyte binding capacity of the surface. When this equation is rearranged, KD can be expressed as Equation 2: KD=C·Rmax/(Req−RI)−C. KD can be calculated by substituting the values of Rmax, RI, and C into Equation 1 or Equation 2. From the current measurement conditions, RI=0, C=2 μmol/L can be used.
row,Binder,Kd [nM]
1,B1,900
2,B2,2800
3,B3,2800
4,B4,940
5,B5,2500

# Target: T2, human FcγRIIaH extracellular domain, His-tagged (human, UniProt P12318 34-217)
# T2 construct: also called human FcγRIIa (type H); FcgRIIaH
# T2 sequence: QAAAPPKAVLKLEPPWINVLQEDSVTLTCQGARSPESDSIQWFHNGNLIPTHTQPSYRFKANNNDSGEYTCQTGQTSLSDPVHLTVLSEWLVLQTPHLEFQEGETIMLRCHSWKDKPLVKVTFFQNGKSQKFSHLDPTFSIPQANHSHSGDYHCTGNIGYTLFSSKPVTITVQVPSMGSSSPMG
# Assay: SPR, antibody captured, FcgR analyte
# Protocol: as §1, §2
row,Binder,Kd [nM]
1,B1,440
2,B2,530
3,B3,640
4,B4,450
5,B5,1400

# Target: T3, cynomolgus monkey FcγRIIa2 extracellular domain, His-tagged (cynomolgus monkey)
# T3 construct: also called cyno FcγRIIa2; cynoFcgRIIa2
# T3 chain: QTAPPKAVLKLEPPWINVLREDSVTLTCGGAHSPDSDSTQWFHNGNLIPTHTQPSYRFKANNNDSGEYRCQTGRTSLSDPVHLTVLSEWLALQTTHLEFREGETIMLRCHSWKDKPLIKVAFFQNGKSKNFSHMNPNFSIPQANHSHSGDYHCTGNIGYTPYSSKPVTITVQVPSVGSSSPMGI
# Assay: SPR, antibody captured, FcgR analyte
# Protocol: as §1, §2
row,Binder,Kd [nM]
1,B1,2300
2,B2,2300
3,B3,2800
4,B4,2900

# Target: T4, cynomolgus monkey FcγRIIb extracellular domain, His-tagged (cynomolgus monkey)
# T4 construct: also called cyno FcγRIIb; cynoFcγRIIb
# T4 chain: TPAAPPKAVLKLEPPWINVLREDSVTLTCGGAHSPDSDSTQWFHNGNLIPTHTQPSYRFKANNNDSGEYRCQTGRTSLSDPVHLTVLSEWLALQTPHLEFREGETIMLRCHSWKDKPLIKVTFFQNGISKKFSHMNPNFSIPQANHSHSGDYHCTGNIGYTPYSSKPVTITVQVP
# Assay: SPR, antibody captured, FcgR analyte
# Protocol: as §1, §2
row,Binder,Kd [nM]
1,B1,1100
2,B2,1100
3,B3,1400
4,B4,580
5,B5,4200

# Target: T5, human FcγRIIaR extracellular domain, His-tagged (human, UniProt P12318 34-217)
# T5 construct: also called human FcγRIIa (type R); FcgRIIaR
# T5 chain: T2 sequence with H134R
# Assay: SPR, antibody captured, FcgR analyte
# Protocol: as §1, §2
row,Binder,Kd [nM]
1,B1,230
2,B2,760
3,B3,970
4,B4,280
5,B5,1300

# Target: T6, human FcγRIIIaV extracellular domain, His-tagged (human, UniProt P08637 17-208)
# T6 construct: also called FcgRIIIaV
# Assay: SPR, antibody captured, FcgR analyte
# Protocol: as §1, §2
# T6 sequence (P08637 17-208 F176V): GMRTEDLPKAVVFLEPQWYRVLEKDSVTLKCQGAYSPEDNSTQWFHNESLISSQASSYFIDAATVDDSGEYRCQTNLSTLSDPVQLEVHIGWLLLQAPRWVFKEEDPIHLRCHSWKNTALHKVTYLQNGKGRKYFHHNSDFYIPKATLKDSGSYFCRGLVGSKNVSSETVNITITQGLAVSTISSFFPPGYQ
row,Binder,Kd [nM]
1,B1,480
2,B2,200
3,B3,290
4,B4,140
5,B5,3000

# Target: T7, cynomolgus monkey FcγRIIa3 extracellular domain, His-tagged (cynomolgus monkey)
# T7 construct: also called cyno FcγRIIa3; cynoFcgRIIa3
# T7 chain: T3 chain with K127I, N130K, H133P, Q142R
# Assay: SPR, antibody captured, FcgR analyte
# Protocol: as §1, §2
row,Binder,Kd [nM]
1,B1,7900
2,B2,6700
3,B3,5700
4,B4,5500
5,B5,18000

# Target: T8, cynomolgus monkey FcγRIIa1 extracellular domain, His-tagged (cynomolgus monkey)
# T8 construct: also called cyno FcγRIIa1; cynoFcgRIIa1
# T8 chain: T3 chain with T95P, A121T, K127I, S128A, N130K, N135D, Q142R
# Assay: SPR, antibody captured, FcgR analyte
# Protocol: as §1, §2
row,Binder,Kd [nM]
1,B1,2100
2,B2,2100
3,B3,2100
4,B4,2700
5,B5,6500

# Target: T9, cynomolgus monkey FcγRIIIaS extracellular domain, His-tagged (cynomolgus monkey, UniProt Q8SPW2 21-206 at identity 1.00))
# T9 construct: also called cyno FcγRIIIaS; cynoFcγRIIIaS
# T9 chain: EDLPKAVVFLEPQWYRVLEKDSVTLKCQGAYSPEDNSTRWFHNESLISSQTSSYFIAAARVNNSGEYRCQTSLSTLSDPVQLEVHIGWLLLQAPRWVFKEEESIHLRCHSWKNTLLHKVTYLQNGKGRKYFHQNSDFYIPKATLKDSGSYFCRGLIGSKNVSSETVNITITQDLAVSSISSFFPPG
# Assay: SPR, antibody captured, FcgR analyte
# Protocol: as §1, §2
row,Binder,Kd [nM]
1,B1,200
2,B2,100
3,B3,160
4,B4,98
5,B5,3400

# Target: T1, human FcγRIIb extracellular domain, …
# Assay: SPR; KD of SG1 / KD of variant;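 also: relative to parent M103205H795-SG1 carrying the SG1 human heavy chain constant region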
row,Binder,KD fold (SG1 = 1) [fold]
1,B1,5.3
2,B4,4.9
3,B5,1.8

# Target: T2, human FcγRIIaH extracellular domain, …
# Assay: SPR; KD of SG1 / KD of variant;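 also: relative to parent M103205H795-SG1 carrying the SG1 human heavy chain constant region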
row,Binder,KD fold (SG1 = 1) [fold]
1,B1,1.6
2,B4,1.5
3,B5,0.5

# Target: T3, cynomolgus monkey FcγRIIa2 …
# Assay: SPR; KD of SG1 / KD of variant;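 also: relative to parent M103205H795-SG1 carrying the SG1 human heavy chain constant region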
row,Binder,KD fold (SG1 = 1) [fold]
1,B1,2.2
2,B4,1.8
3,B5,0.8

# Target: T4, cynomolgus monkey FcγRIIb extracellular …
# Assay: SPR; KD of SG1 / KD of variant;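 also: relative to parent M103205H795-SG1 carrying the SG1 human heavy chain constant region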
row,Binder,KD fold (SG1 = 1) [fold]
1,B1,1.6
2,B4,2.6
3,B5,0.6

# Target: T6, human FcγRIIIaV extracellular domain, …
# Assay: SPR; KD of SG1 / KD of variant
row,Binder,KD fold (SG1 = 1) [fold]
1,B1,1.69
2,B4,5.79
3,B5,0.27

# Target: T7, cynomolgus monkey FcγRIIa3 …
# Assay: SPR; KD of SG1 / KD of variant
row,Binder,KD fold (SG1 = 1) [fold]
1,B1,2.2
2,B4,3.2
3,B5,0.5

# Target: T8, cynomolgus monkey FcγRIIa1 …
# Assay: SPR; KD of SG1 / KD of variant
row,Binder,KD fold (SG1 = 1) [fold]
1,B1,1.5
2,B4,1.2
3,B5,0.5

# Target: T9, cynomolgus monkey FcγRIIIaS …
# Assay: SPR; KD of SG1 / KD of variant
row,Binder,KD fold (SG1 = 1) [fold]
1,B1,1.8
2,B4,3.67
3,B5,0.11
